# Experiment: Epididymal fat weight and body weight, lactoferrin vs trivalent chromium vs combination (Test Example 5)
# Assay type: in vivo, C57BL/6JNarl mice
# Conditions: fed 7 weeks; for Body weight / Epididymal fat weight: high-fat diet
# Procedure: The C57BL/6JNarl mice (N=70) are fed with a mouse diet (high-fat Rodent TestDiet, PMI Nutrition International Inc., MO, U.S.A.; 67% of calories provided by fat). The C57BL/6JNarl mice are randomly divided into seven groups and there are ten mice in each group. In one experimental group, the mice are fed with the mouse diet mixed with lactoferrin (NZMP lactoferrin, New Zealand, low dose: 40 mg/kg BW/day, high dose: 80 mg/kg BW/day). In another experimental group, the mice are fed with the mouse diet mixed with trivalent chromium (chromium (III) chloride hexahydrate, low dose: 40 μg/kg BW/day Cr^3+, high dose: 80 μg/kg BW/day Cr^3+). In yet another experimental group, the mice are fed with the mouse diet mixed with a lactoferrin/trivalent chromium composition (low dose: lactoferrin of 40 mg/kg BW/day with Cr^3+ of 40 μg/kg BW/day, high dose: lactoferrin of 80 mg/kg BW/day with Cr^3+ of 80 μg/kg BW/day). In the control group, the mice are fed with the mouse diet containing no other additive. The C57BL/6JNarl mice aged 8 weeks are fed for 7 weeks and then sacrificed to measure the weight of Epididymal fat and body weight, as shown in Table 5.
# Accordingly, it can be known that the lactoferrin/trivalent chromium composition provides more significant efficiency in comparison to single lactoferrin or trivalent chromium.
# [1] = High dose (lactoferrin 80 mg/kg BW/day and/or Cr3+ 80 μg/kg BW/day)
# [2] = Low dose (lactoferrin 40 mg/kg BW/day and/or Cr3+ 40 μg/kg BW/day)
molecule,measurement,setting,value
"Lactoferrin: NZMP lactoferrin, New Zealand; glycoprotein capable of binding metal ions, given alone as comparison (protein, UniProt P24627 20-708, looked up) Lactotransferrin: APRKNVRWCTISQPEWFKCRRWQWRMKKLGAPSITCVRRAFALECIRAIAEKKADAVTLDGGMVFEAGRDPYKLRPVAAEIYGTKESPQTHYYAVAVVKKGSNFQLDQLQGRKSCHTGLGRSAGWIIPMGILRPYLSWTESLEPLQGAVAKFFSASCVPCIDRQAYPNLCQLCKGEGENQCACSSREPYFGYSGAFKCLQDGAGDVAFVKETTVFENLPEKADRDQYELLCLNNSRAPVDAFKECHLAQVPSHAVVARSVDGKEDLIWKLLSKAQEKFGKNKSRSFQLFGSPPGQRDLLFKDSALGFLRIPSKVDSALYLGSRYLTTLKNLRETAEEVKARYTRVVWCAVGPEEQKKCQQWSQQSGQNVTCATASTTDDCIVLVLKGEADALNLDGGYIYTAGKCGLVPVLAENRKSSKHSSLDCVLRPTEGYLAVAVVKKANEGLTWNSLKDKKSCHTAVDRTAGWNIPMGLIVNQTGSCAFDEFFSQSCAPGADPKSRLCALCAGDDQGLDKCVPNSKEKYYGYTGAFRCLAEDVGDVAFVKNDTVWENTNGESTADWAKNLNREDFRLLCLDGTRKPVTEAQSCHLAVAPNHAVVSRSDRAAHVKQVLLHQQALFGKNGKNCPDKFCLFKSETKNLLFNDNTECLAKLGGRPTYEEYLGTEYVTAIANLKKCSTSPLLEACAFLTR",Body weight,[1],27.9 ± 1.37 g
same,Epididymal fat weight,[1],0.82 ± 0.2 g
same,Body weight,[2],27.7 ± 2.19 g
same,Epididymal fat weight,[2],0.72 ± 0.28 g
same,Epididymal fat weight and body weight vs control group (in words),,cannot achieve significant efficiency

# — US20100009014A1, “Use of composition for manufacture of medicant and method for inhibiting formation of body fat” (Maxluck Biotechnology Corp., priority 2008, published 2010)
